According to US20250313627A1 (FUSE BIOTHERAPEUTICS, published 2025):

What was measured:
[1] = molecular target: T1, recombinant His tagged human ROR1 (human, UniProt Q01973 30-403, limits assumed); test: BLI (Octet), FUSE protein on the tip, His tagged ROR1 in solution
T1 construct: Analyte in the BLI assay; also called Human ROR1-His; recombinant ROR1
Description: As shown in FIGS. 5A-5D, the binding affinities (KD) of TCEs for ROR1 were assessed. We examined the magnitude by which several TCEs and mutants thereof bind to recombinant ROR1. Kinetic binding graphs were generated via Bio-Layer Interferometry (BLI) using an Octet system. For each TCE, the biosensor tips were coated with FUSE proteins at 15 μg/ml and probed with either recombinant His tagged ROR1 at concentrations ranging from 100 pM to 10 μM. […] The binding affinity (KD), on rate (k-on) and off rate (k-dis), are summarized for ROR1 in FIG. 5D.
We further examined the impact of mutating the cysteine residues located in CDR1 and CDR3 of 2A11 VHH and 5A1 VHH.

[2] = molecular target: T2, human ROR1 (Receptor Tyrosine Kinase-Like Orphan Receptor 1) on the cell surface (human, UniProt Q01973 30-937); test: flow cytometry, B16-F10 cells expressing human ROR1 (high density)
T2 construct: whole, on cells; engineered into B16-F10 (high density) and LS174T (low density) cells; also called B16-F10-ROR1-H; LS174T-ROR1-L
Description: (§1) As shown in the tables below, mouse B16-F10 melanoma (Tables 9A-9F) or LS174T human colorectal adenocarcinoma (Tables 9G-9H) cells genetically engineered to express human ROR1 at high and low densities, respectively, were stained for flow cytometric analysis with 100 nM of humanized variants of the ROR1 specific VHHs, 5A1 or 2A11 in either a VHH-Fc format or the Ac13 format shown in FIG. 1. Cells were analyzed on a flow cytometer after the primary test article was fluorescently tagged with a goat anti human IgG-Fc specific PE secondary antibody. The positive control used was PE conjugated anti-human ROR1 clone 2A2. Negative controls included a PE labeled mouse IgG Ab, the secondary antibody only, the combination of a Hen Egg Lysozyme (HEL) specific antibody plus goat anti human IgG-Fc specific PE and Fluorescence Minus One (FMO). Other controls included the non-humanized version of 5A1-Fc (FUSE179), 2A11-Fc (FUSE112) and 5A1-Ac13 (FUSE488). Humanized variants were generated using computational design (FUSE489, FUSE497-498, FUSE563, FUSE569-570, and BI-HU9-VHH11-33), a yeast display library in which mutations were inserted into the Vernier zone residues of human framework indicated in GenBank accession number M99660 (FUSE524-525, FUSE589, FUSE597-598, FUSE537, FUSE661-662, BI-HU9-HK and BI-HU9-HK-1), and a second yeast display library in which mutations were inserted into the Vernier zone residues of human framework indicated in GenBank accession number AWH66715 and amino acid position 103 within CDR3 (FUSE559, FUSE590-596, BI-HU9-VH9-1, FUSE654-655 and FUSE661-662. Affinity matured variants of FUSE559 were also generated using computational design (F22158101-21; Table 9H).

[3] = molecular target: T1, recombinant His tagged human ROR1; test: SPR (Biacore 8K), recombinant human ROR1 amine-coupled on a CM5 chip (4400 RU), analyte 200nM, 1:1 binding fit; column '1:1 binding ka (1/Ms)' [table below it]
Description: (§2) Protein test article binding to recombinant human ROR1 (Acro Biosystems, RO1-H522y) was detected on a BIAcore 8K (Cytiva) biosensor system using an SPR assay. Briefly, a carboxymethylated CM5 sensor chip was activated with 1:1 mixture of 0.4 M N-ethyl-N-(3-dimethylaminopropyl) carbodiimide and 0.1 M′ N-hydroxysuccinimide. Recombinant human ROR1 in 10 mM NaOAc (pH5) was then immobilized on the sensor chip by amine-coupling according to the manufacturer's instructions to yield the stable RU of 4400. Unreacted sites were blocked with 1M ethanolamine/HCl (pH 8). Control flow cells (blank) were activated and blocked in the absence of ROR1. Flow cells were routinely equilibrated with running buffer (PBS, 0.005% surfactant P20). Test article proteins used for assessment of binding to recombinant human ROR1 binding were diluted in HBS-EP running buffer and injected into the sensor chip at different concentrations. […] Data from duplicate assays were modeled for binding equilibrium and dot plots for 200 nM of protein test article was calculated. Association constant (ka), dissociation constant (kd) and binding affinity (KD=kd/ka) were generated from integrated software in the BIAcore 8K system.
(§3) Shown are sensorgrams of surface plasmon resonance (SPR) data generated via Biacore analysis. A summary table of binding affinity (KD), on rate (k-a) and off rate (kd) is shown below FIG. 16B.

[4] = molecular target: T2, human ROR1 (Receptor Tyrosine …); test: flow cytometry, LS174T cells expressing human ROR1 (low density)
Description: as §1

[5] = molecular target: T2, human ROR1 (Receptor Tyrosine …); test: as above; remark: listed apart in the source
Description: as §1

[6] = molecular target: T2, human ROR1 (Receptor Tyrosine …); test: flow cytometry on B16-F10 cells engineered to express human ROR1, secondary antibody to the IgG1 Fc
Description: As shown in FIG. 15 the apparent binding affinity (EC50-binding) of the ROR1 specific VHH-Fc incorporating either the non humanized VHH clone 5A1 (FUSE179; black circle), the humanized clone 5A1-FA9-HK1 (FUSE559; black square) or the humanized clone 5A1-HK1 (FUSE524; black triangle) was calculated. Shown is a non-linear x-y plot of binding to B16-F10 cell engineered to express human ROR1 relative to the concentration of test article used for staining. A Hen Egg Lysozyme (HEL)-specific antibody was used as the negative isotype control. Binding was measured via flow cytometry using a fluorescently labeled secondary antibody specific for the Fc domain of IgG1. A summary table of EC50s and maximum MFI is shown beneath under the graph.

[7] = molecular target: T2, human ROR1 (Receptor Tyrosine …); test: flow cytometry, B16-F10 cells expressing human ROR1 (high density); remark: listed apart in the source
Description: as §1

[8] = molecular target: T1, recombinant His tagged human ROR1; test: SPR (Biacore 8K), recombinant human ROR1 amine-coupled on a CM5 chip (4400 RU), analyte 200nM, 1:1 binding fit; column 'kd (1/s)' [table below it]
Description: as §2, §3

[9] = molecular target: T1, recombinant His tagged human ROR1; test: SPR (Biacore 8K), recombinant human ROR1 amine-coupled on a CM5 chip (4400 RU), analyte 200nM, 1:1 binding fit [table below it]
Description: as §2, §3

[10] = molecular target: T2, human ROR1 (Receptor Tyrosine …); test: flow cytometry, B16-F10 cells expressing human ROR1 (high density); remark: listed apart in the source
Description: as §1

[11] = molecular target: T2, human ROR1 (Receptor Tyrosine …); test: flow cytometry on ROR1+ MDA-MB-231 cells, secondary antibody to the IgG1 Fc; table row 'Binding EC50 (nM)', the graph's axis reads 'Concentration (pM)'
[12] = molecular target: T3, human CD3 on T cells (human, UniProt P07766 23-207; P09693 23-182; P04234 22-171; P20963 22-164); test: flow cytometry on CD3+ Jurkat NFAT Lucia cells, secondary antibody to the IgG1 Fc
T3 construct: whole, on cells; also called human CD3 on Jurkat T cells; human CD3 on T cells isolated from human PBMC
T3 sequence (P07766 23-207, chain 1 of 4): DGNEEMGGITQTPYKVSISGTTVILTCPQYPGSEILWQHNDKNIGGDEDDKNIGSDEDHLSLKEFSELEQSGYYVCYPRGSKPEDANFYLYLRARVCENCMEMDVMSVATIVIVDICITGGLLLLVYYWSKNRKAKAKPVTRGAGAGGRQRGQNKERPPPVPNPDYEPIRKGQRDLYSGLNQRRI
T3 sequence (P09693 23-182, chain 2 of 4): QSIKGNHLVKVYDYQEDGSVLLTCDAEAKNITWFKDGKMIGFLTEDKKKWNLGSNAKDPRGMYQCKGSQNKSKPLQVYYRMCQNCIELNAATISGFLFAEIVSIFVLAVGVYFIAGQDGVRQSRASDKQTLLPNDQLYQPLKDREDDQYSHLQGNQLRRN
T3 sequence (P04234 22-171, chain 3 of 4): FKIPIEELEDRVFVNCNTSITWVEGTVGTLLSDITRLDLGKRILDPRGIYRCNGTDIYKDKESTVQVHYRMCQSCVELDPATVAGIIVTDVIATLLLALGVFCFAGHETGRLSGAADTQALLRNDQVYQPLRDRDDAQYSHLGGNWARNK
T3 sequence (P20963 22-164, chain 4 of 4): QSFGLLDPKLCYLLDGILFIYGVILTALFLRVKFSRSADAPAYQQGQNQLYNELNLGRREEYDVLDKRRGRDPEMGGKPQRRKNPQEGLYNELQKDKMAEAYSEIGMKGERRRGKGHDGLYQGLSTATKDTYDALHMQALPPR

T2 sequence (Q01973 30-937): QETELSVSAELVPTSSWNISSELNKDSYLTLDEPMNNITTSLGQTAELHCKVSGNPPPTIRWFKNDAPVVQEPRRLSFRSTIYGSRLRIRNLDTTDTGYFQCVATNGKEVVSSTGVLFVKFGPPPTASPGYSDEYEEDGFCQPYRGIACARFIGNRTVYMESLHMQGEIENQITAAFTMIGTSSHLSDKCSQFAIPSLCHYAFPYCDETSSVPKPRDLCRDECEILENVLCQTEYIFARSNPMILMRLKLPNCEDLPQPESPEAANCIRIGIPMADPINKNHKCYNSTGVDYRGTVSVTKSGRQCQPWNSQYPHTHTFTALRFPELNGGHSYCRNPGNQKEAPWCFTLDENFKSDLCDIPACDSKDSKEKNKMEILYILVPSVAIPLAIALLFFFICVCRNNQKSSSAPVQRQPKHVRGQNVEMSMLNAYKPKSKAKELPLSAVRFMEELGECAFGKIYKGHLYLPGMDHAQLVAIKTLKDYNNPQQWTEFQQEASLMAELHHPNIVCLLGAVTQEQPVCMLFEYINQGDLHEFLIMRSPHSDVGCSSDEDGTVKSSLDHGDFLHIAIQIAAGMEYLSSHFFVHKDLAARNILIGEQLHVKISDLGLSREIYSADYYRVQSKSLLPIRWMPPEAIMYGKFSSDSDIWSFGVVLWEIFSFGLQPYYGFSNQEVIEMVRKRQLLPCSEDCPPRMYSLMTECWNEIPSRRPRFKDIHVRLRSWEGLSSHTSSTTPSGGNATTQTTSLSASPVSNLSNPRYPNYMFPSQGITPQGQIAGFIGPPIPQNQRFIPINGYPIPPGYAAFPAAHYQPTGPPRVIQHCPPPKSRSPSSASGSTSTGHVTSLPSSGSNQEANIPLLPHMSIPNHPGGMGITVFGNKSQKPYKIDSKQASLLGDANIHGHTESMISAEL
T1 sequence (Q01973 30-403 limits assumed): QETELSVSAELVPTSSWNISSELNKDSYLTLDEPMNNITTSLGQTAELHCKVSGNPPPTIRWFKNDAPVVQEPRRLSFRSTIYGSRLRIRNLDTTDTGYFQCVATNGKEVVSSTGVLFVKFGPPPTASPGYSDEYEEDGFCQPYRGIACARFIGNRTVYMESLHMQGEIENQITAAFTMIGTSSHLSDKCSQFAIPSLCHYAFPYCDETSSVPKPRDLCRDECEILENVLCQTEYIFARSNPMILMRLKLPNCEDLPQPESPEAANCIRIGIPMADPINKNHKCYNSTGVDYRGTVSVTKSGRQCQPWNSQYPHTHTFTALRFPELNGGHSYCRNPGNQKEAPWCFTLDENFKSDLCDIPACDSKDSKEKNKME

B1: FUSE-453 (2A11 VHH mutant-Fc fusion protein) (Fc fusion)
chain: QVQLQESGGGSVPAGGSLRLSCAASGSTYSANVMGWFRQAPGKEREEVASMSIRSGRTYYSDSVKGRFTISQDGSKNTLYLQLNSLKAEDTALYYCAAAYGGSRVVYNYRGQGTQVTVSS
notes: also called mutant 2A11; 2A11-CV; not shown: human Fc
fold lower affinity than FUSE-112 [1]: > 100 fold

B2: FUSE-454 (5A1 VHH mutant-Fc fusion protein) (Fc fusion)
chain: QVQLQESGGGSVQAGGSLKLSCTASGYTNRLKVMGWFRQAPGKEREEIATISTGTGNTYYADSVKGRFTFSQDKVKNTVYLQMNTLKPDDTGMYYCAADVRPDGTTVHYNSGGQGTQVTVSS
notes: also called mutant 5A1; 5A1-CV; not shown: human Fc
fold lower affinity than the parent (printed FUSE-454, meant FUSE-179) [1]: > 100 fold

B3: FUSE-559 (h5A1-FA9-HK1 Fc) (Fc fusion)
chain: EVQLLESGGGLVQPGGSLRLSCTASGYTNRLKCMGWFRQAPGKEREEIASISTGTGNTYYADSVKGRFTISRDKSRNTLYLQMNTLRAEDTAVYYCAADVRPHGTTCHYNSRGQGTQVTVSS
notes: VHH-Fc format; also called humanized clone 5A1-FA9-HK1; not shown: Fc of the VHH-Fc format
MFI [2]: 6080 | kon [3]: 301000 M⁻¹ s⁻¹ | MFI [4]: 3120 | MFI [5]: 24400 | EC50 [6]: 2.31 nM | Max MFI [6]: 7600 MFI | MFI [7]: 199000 | koff [8]: 0.00077 s⁻¹ | Kd [9]: 2.56 nM

B4: FUSE-488 (5A1-Ac13) (bispecific antibody, human IgG1, lambda, L234A L235A)
heavy: EVQLVESGGGLVQPGGSLRLSCAASGFTFSTYAMNWVRQAPGKGLEWVARIRSKYNNYATYYADSVKDRFTISRDDSKNTLYLQMNSLRAEDTAVYYCARHGNFGNSYVSWFAYWGQGTMVTVSSASTKGPSVFPLAPSSKSTSGGTAALGCLVKDYFPEPVTVSWNSGALTSGVHTFPAVLQSSGLYSLSSVVTVPSSSLGTQTYICNVNHKPSNTKVDKKVEPKSCDKTHTCPPCPAPEAAGGPSVFLFPPKPKDTLMISRTPEVTCVVVDVSHEDPEVKFNWYVDGVEVHNAKTKPREEQYNSTYRVVSVLTVLHQDWLNGKEYKCKVSNKALPAPIEKTISKAKGQPREPQVYTLPPSREEMTKNQVSLSCAVKGFYPSDIAVEWESNGQPENNYKTTPPVLDSDGSFFLVSKLTVDKSRWQQGNVFSCSVMHEALHNRFTQKSLSLSPGK
chain: QVQLQESGGGSVQAGGSLKLSCTASGYTNRLKCMGWFRQAPGKEREEIATISTGTGNTYYADSVKGRFTFSQDKVKNTVYLQMNTLKPDDTGMYYCAADVRPDGTTCHYNSGGQGTQVTVSSEPKSSDKTHTCPPCPAPEAAGGPSVFLFPPKPKDTLMISRTPEVTCVVVDVSHEDPEVKFNWYVDGVEVHNAKTKPREEQYNSTYRVVSVLTVLHQDWLNGKEYKCKVSNKALPAPIEKTISKAKGQPREPQVYTLPPSREEMTKNQVSLWCLVKGFYPSDIAVEWESNGQPENNYKTTPPVLDSDGSFFLYSKLTVDKSRWQQGNVFSCSVMHEALHNHYTQKSLSLSPGK
light: QAVVTQEPSLTVSPGGTVTLTCRSSTGAVTTSNYANWVQQKPGQAPRGLIGGTNKRAPGTPARFSGSLLGGKAALTLSGVQPEDEAEYYCALWYSNLWVFGGGTKLTVLGQPKAAPSVTLFPPSSEELQANKATLVCLISDFYPGAVTVAWKADSSPVKAGVETTTPSKQSNNKYAASSYLSLTPEQWKSHRSYSCQVTHEGSTVEKTVAPTECSGGGGSGGGGSGGGGSGGGGSQVQLQESGGGSVQAGGSLKLSCTASGYTNRLKCMGWFRQAPGKEREEIATISTGTGNTYYADSVKGRFTFSQDKVKNTVYLQMNTLKPDDTGMYYCAADVRPDGTTCHYNSGGQGTQVTVSS
notes: also called humanized CD3 clone 1F3.3 x ROR1 VHH 5A1; non humanized 5A1 x 1F3-3 bsAb in format Ac13
MFI [10]: 3910 | EC50 [11]: 19.2 nM | EC50 [12]: 10.6 nM
